Reference: publication doi:10.1101/2022.04.12.488075
pKd: −log10 of the molar value.

Molecular target: SARS-CoV-2 Omicron BA.2 spike extracellular domain trimer (SARS-CoV-2 (Omicron BA.2)) (UniProt P0DTC2)

| Substance | pKd |
| --- | --- |
| JMB2002 Fab | 8.59 |
| JMB2002 IgG (antibody) | 9.52 |
